The target in the assay is FLAG GG 9-mer (SEQ ID NO:20).

This note sets out measurements from patent US5670616.

As for Trypsin (type XI DPCC treated) (enzyme), the completeness of proteolytic cleavage (relative mobility on SDS gels) stood at 100%.
